The source of these data is the RNAGym collection of RNA variant scans (doi:10.7554/elife.80360).

B1: HDV Ribozyme (parent)
chain: GGCCGGCAUGGUCCCAGCCUCCUCGCUGGCGCCGGCUGGGCAACAUUCCGAGGGGACCGUCCCCUCGGUAAUGGCGAAUGGGACCCA

In the series the parent is B1. Briefly: self-cleavage, relative activity (ratio to wild type); higher = more cleavage; co-transcriptional.
In the case of C58G C64A, the self-cleavage amounted to 0.855.
Then C58U U65G, with 0.964; and C58U U65C, with 1.03; and G59C G81A, with 0.69.
For U60A C64G, the self-cleavage is 0.954.
U60A C64A: the self-cleavage is 0.878.
Then G59A G67U, with 0.918; and U60C A78G, with 0.935; and G59C A83C, with 0.514.
For G59C A83U, the self-cleavage is 0.469.
Consider C58G A71C, for which the self-cleavage came out at 0.802.
As for U60A G67A, the self-cleavage was 0.95.
Consider U60A G67U, for which the self-cleavage worked out at 0.818.
Regarding U60A G67C, the self-cleavage amounted to 1.03.
C58A A71G: the self-cleavage was determined as 0.897.
For C58G G76U, the self-cleavage amounted to 1.11.
Then U60A A87U, with 0.985; and C58G G82U, with 0.534.
With G59U G68A the figure was 0.88.
Then G59U G68U, with 1.
Take U60A: the self-cleavage was determined as 1.
For U60C, the self-cleavage worked out at 1.01.
Then G59A A70C, with 0.982; and C58G U79C, with 0.366.
Then U60A C75U, with 0.253; and U60A C75A, with 0.0811.
Regarding G59A U79G, the self-cleavage is 0.906.
With G59U C84A the figure was 0.863; with G59U G81U, 0.433; with G59A C86A, 0.842.
Then C58G U60C, with 1.2; and G59U C66A, with 0.904; and C58U A87G, with 0.876.
For the variant U60A A83G, the self-cleavage was 1.04.
Turning to U60A A83C, the self-cleavage amounted to 0.554.
With U60A A83U the figure was 0.356.
With G59U C61A the figure was 0.968; with G59U C61G, 1.2.
Then C57U U60A, with 1.07; and G59A U65A, with 0.933; and C58G G73C, with 0.582.
Regarding C57U C86A, the self-cleavage was found to be 0.882.
For G59A U72A, the self-cleavage came out at 0.698.
As for G59A U72G, the self-cleavage worked out at 0.637.
For C58A C66U, the self-cleavage is 0.917.
With G59A A77C the figure was 0.475; with U60C A83G, 0.707; with G59A C84U, 0.73.
With C57U C85G, the self-cleavage came out at 0.984.
Take C57U G76A: the self-cleavage amounted to 1.1.
As for C57U G76U, the self-cleavage amounted to 0.906.
C57U G76C: the self-cleavage turned out to be 0.902.
Then G59A C64A, with 0.862; and G59C G76U, with 0.891.
For the variant C58A C62A, the self-cleavage was determined as 1.26.
As for C58G C86G, the self-cleavage came to 0.969.
Turning to C58G G67U, the self-cleavage turned out to be 0.892.
As to C58G G67C, the self-cleavage amounted to 0.739.
C58G A70G: the self-cleavage stood at 1.03.
C58G A70U: the self-cleavage came to 0.929.
Then G59A G74A, with 0.431.
With G59C C64U the figure was 1.14.
For the variant G59C A77G, the self-cleavage amounted to 1.13.
For the variant G59C A77U, the self-cleavage turned out to be 0.534.
C57U G67C: the self-cleavage turned out to be 1.11.
Consider C58A G82C, for which the self-cleavage was determined as 0.17.
In the case of C58A G82U, the self-cleavage was 0.376.
Then G59C G73A, with 0.779; and G59U A87G, with 0.993; and C58U A71C, with 0.85.
With C58U A71G the figure was 1.08.
For G59U G80C, the self-cleavage was 0.141.
Then G59C A87U, with 0.981; and G59U A71U, with 0.862.
G59A U60A: the self-cleavage was determined as 0.979.
On to G59A G73A, for which the self-cleavage stood at 0.665.
Then G59A G73C, with 0.394; and G59C C84G, with 0.831; and C58U G67C, with 1.07.
With U60A G73U, the self-cleavage was 0.475.
Take C58G G81A: the self-cleavage was found to be 0.243.
With C58U A77C the figure was 0.489.
Then U60A G80C, with 0.0354; and G59A C66A, with 0.867; and U60A G76C, with 0.973.
Then U60A G76U, with 1.01.
Turning to C58U U69A, the self-cleavage was 0.89.
For U60A U69C, the self-cleavage was found to be 1.08.
With U60C A71C the figure was 1.27; with C58G A78C, 0.102.
With U60A C61G the figure was 1.19; with G59C A71U, 1.06; with G59C G82A, 0.32.
With G59C G80A the figure was 0.409; with U60A C86A, 0.577.
Regarding G59C C63A, the self-cleavage worked out at 1.17.
With C58G C84G the figure was 0.554.
Then C58G C84A, with 0.817.
With G59U A77G the figure was 0.847; with G59C G67C, 0.929.
For the variant U60A A77G, the self-cleavage amounted to 1.14.
Take U60A A77U: the self-cleavage came out at 0.453.
Then U60A C84G, with 0.475; and C58A G80U, with 0.21.
As to C58G C85U, the self-cleavage turned out to be 0.956.
With C58G C85G the figure was 0.95; with G59C U60A, 1.09.
Then C57U G80U, with 0.147; and U60A G68C, with 0.791.
On to C58A C85U, for which the self-cleavage was 0.869.
Then C58A G68C, with 1.03; and C58U G68A, with 0.855.
Turning to C58G A87U, the self-cleavage stood at 0.897.
With G59C C85U the figure was 1.14; with G59C U69C, 1.23; with G59U G76A, 0.925.
For the variant C58G G68U, the self-cleavage worked out at 0.959.
On to C58G A77G, for which the self-cleavage was found to be 0.831.
As to C58U C64U, the self-cleavage was determined as 0.987.
Take C58G G80A: the self-cleavage came out at 0.332.
With C58G G80C the figure was 0.147; with G59U C63A, 0.935; with U60A C62G, 0.997.
Consider G59U A78G, for which the self-cleavage was 0.904.
As to G59C G74U, the self-cleavage is 0.531.
In the case of C57U G74U, the self-cleavage is 0.548.
Then G59A G68A, with 0.968; and G59C C66A, with 0.914; and U60A G74C, with 0.225.
With U60A G74U, the self-cleavage was 0.521.
With C58A C61U the figure was 0.972.
With C58A C61G, the self-cleavage came out at 1.03.
C58A G74A: the self-cleavage was 0.426.
With C58A G74U the figure was 0.554; with C58G U72C, 0.369; with C58G U72G, 0.447.
Take G59A C61A: the self-cleavage stood at 1.02.
Then G59A G80A, with 0.305.
As to G59A G80U, the self-cleavage is 0.179.
Turning to G59C G68U, the self-cleavage was 1.07.
For the variant U60A A71U, the self-cleavage amounted to 1.03.
As for U60A A71G, the self-cleavage was 1.12.
C58G C63A: the self-cleavage was 0.813.
With U60A G82A the figure was 0.373; with C58A C63A, 1.04; with C58A C63G, 0.932.
G59U G67U: the self-cleavage is 1.17.
With C58G C62A the figure was 0.796; with C58A U79G, 0.772; with C58A C64G, 1.06.
Then C58A C64U, with 1.15.
Consider C58U C84G, for which the self-cleavage amounted to 0.665.
Then G59C C62A, with 0.87.
For the variant U60C A70U, the self-cleavage was determined as 1.15.
Take G59U C75G: the self-cleavage came out at 0.123.
For C57U G73U, the self-cleavage came out at 0.338.
As for C57U G73C, the self-cleavage came out at 0.748.
With C58G G74U the figure was 0.511; with C58U U60A, 0.845.
With C58U U60C the figure was 1.19; with C58U, 1.04; with C58G, 0.964.
Take C58A: the self-cleavage is 1.02.
Take C57U U72C: the self-cleavage was determined as 0.566.
Take C57U U72A: the self-cleavage was found to be 0.657.
In the case of C58G U65A, the self-cleavage is 0.944.
Then C58A U65A, with 0.9.
